Data published in article PMC12561182, “Gal3‐CaN‐Smurf1 Complex Sequestrates FLCN‐FNIPs to Facilitate TFEB Activation in Response to Endomembrane Damage” (Advanced Science, 2025).
One block for each binder: values may come before it.

Target: T1, His-Flag-Smurf1 (UniProt Q9HCE7-2 1-731)
T1 construct: Smurf1; printed length 731 (HECT domain residues 374–731, catalytic C699); also called SMAD Specific E3 Ubiquitin Protein Ligase 1; source: E. coli, purified
Assay: pull-down; GST pull-down: GST fusion and His-tagged partner both purified from E. coli; 4 °C overnight, washed with PBS
Details: both partners purified

T1 sequence (Q9HCE7 other isoform, or with tags, fused parts or gaps): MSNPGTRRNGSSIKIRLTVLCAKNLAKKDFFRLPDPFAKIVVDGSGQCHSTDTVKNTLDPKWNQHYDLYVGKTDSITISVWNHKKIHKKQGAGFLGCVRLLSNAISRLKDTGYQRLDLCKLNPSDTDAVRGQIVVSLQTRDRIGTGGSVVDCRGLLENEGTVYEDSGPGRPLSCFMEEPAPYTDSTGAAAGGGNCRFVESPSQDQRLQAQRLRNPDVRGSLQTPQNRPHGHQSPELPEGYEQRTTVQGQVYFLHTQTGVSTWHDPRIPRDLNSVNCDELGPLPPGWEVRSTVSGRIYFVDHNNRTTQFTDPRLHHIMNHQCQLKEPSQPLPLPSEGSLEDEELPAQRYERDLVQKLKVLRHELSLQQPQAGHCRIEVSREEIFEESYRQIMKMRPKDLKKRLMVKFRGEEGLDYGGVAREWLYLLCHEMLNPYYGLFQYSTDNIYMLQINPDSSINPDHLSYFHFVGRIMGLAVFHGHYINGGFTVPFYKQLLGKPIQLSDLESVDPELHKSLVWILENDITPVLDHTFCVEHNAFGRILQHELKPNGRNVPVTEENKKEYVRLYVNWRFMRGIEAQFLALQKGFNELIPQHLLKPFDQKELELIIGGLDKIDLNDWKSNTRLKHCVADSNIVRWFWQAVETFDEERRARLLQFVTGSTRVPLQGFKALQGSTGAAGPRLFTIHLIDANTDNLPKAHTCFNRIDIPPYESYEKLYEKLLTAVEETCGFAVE

binding result: binds
B1: GST-TFEB (natural protein, UniProt P19484 1-476, looked up)
chain: MASRIGLRMQLMREQAQQEEQRERMQQQAVMHYMQQQQQQQQQQLGGPPTPAINTPVHFQSPPPVPGEVLKVQSYLENPTSYHLQQSQHQKVREYLSETYGNKFAAHISPAQGSPKPPPAASPGVRAGHVLSSSAGNSAPNSPMAMLHIGSNPERELDDVIDNIMRLDDVLGYINPEMQMPNTLPLSSSHLNVYSSDPQVTASLVGVTSSSCPADLTQKRELTDAESRALAKERQKKDNHNLIERRRRFNINDRIKELGMLIPKANDLDVRWNKGTILKASVDYIRRMQKDLQKSRELENHSRRLEMTNKQLWLRIQELEMQARVHGLPTTSPSGMNMAELAQQVVKQELPSEEGPGEALMLGAEVPDPEPLPALPPQAPLPLPTQPPSPFHHLDFSHSLSFGGREDEGPPGYPEPLAPGHGSPFPSLSKKDLDLMLLDDSLLPLASDPLLSTMSPEASKASSRRSSFSMEEGDVL
notes: TFEB, transcription factor EB; source: E. coli, purified

binding result: binds
B2: GST-FLCN (natural protein, UniProt Q8NFG4 1-579, looked up)
chain: MNAIVALCHFCELHGPRTLFCTEVLHAPLPQGDGNEDSPGQGEQAEEEEGGIQMNSRMRAHSPAEGASVESSSPGPKKSDMCEGCRSLAAGHPGYISHDKETSIKYVSHQHPSHPQLFSIVRQACVRSLSCEVCPGREGPIFFGDEQHGFVFSHTFFIKDSLARGFQRWYSIITIMMDRIYLINSWPFLLGKVRGIIDELQGKALKVFEAEQFGCPQRAQRMNTAFTPFLHQRNGNAARSLTSLTSDDNLWACLHTSFAWLLKACGSRLTEKLLEGAPTEDTLVQMEKLADLEEESESWDNSEAEEEEKAPVLPESTEGRELTQGPAESSSLSGCGSWQPRKLPVFKSLRHMRQVLGAPSFRMLAWHVLMGNQVIWKSRDVDLVQSAFEVLRTMLPVGCVRIIPYSSQYEEAYRCNFLGLSPHVQIPPHVLSSEFAVIVEVHAAARSTLHPVGCEDDQSLSKYEFVVTSGSPVAADRVGPTILNKIEAALTNQNLSVDVVDQCLVCLKEEWMNKVKVLFKFTKVDSRPKEDTQKLLSILGASEEDNVKLLKFWMTGLSKTYKSHLMSTVRSPTASESRN
notes: FLCN, folliculin; source: E. coli, purified
